Source: paper PMC10397247
Where two headings read alike, the source gives them in different places. Each block holds one binder with its values, some of them ahead of it.

Legend:
4H317-AA = target: T1, 4H317-AA; assay: two-hybrid library CCmax;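 further: natural log of median RNA to DNA barcode read ratio; higher means stronger binding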
T1 chain: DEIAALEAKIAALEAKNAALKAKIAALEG

4H3343-AA = target: T2, 4H3343-AA; assay: two-hybrid library CCmax; conditions: mean of both orientations;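 further: natural log of median RNA to DNA barcode read ratio; higher means stronger binding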
T2 chain: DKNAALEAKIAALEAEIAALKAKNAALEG

4H335-AA = target: T3, 4H335-AA; assay: two-hybrid library CCmax; conditions: mean of both orientations;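 further: natural log of median RNA to DNA barcode read ratio; higher means stronger binding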
T3 chain: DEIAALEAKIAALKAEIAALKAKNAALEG

4H342-AA = target: T4, 4H342-AA; assay: two-hybrid library CCmax; conditions: mean of both orientations;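 further: natural log of median RNA to DNA barcode read ratio; higher means stronger binding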
T4 chain: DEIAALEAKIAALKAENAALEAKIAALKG

4H3427-AA = target: T5, 4H3427-AA; assay: two-hybrid library CCmax; conditions: mean of both orientations
T5 chain: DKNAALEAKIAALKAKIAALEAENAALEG

4H3606-AA = target: T6, 4H3606-AA; assay: two-hybrid library CCmax; conditions: mean of both orientations
T6 chain: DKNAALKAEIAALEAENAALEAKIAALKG

4H3627-AA = target: T7, 4H3627-AA; assay: two-hybrid library CCmax; conditions: mean of both orientations
T7 chain: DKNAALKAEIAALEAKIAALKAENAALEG

4H3655-AA = target: T8, 4H3655-AA; assay: two-hybrid library CCmax; conditions: mean of both orientations
T8 chain: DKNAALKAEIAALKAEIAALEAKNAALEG

4H3844-AA = target: T9, 4H3844-AA; assay: two-hybrid library CCmax; conditions: mean of both orientations
T9 chain: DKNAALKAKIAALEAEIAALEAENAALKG

4H3921-AA = target: T10, 4H3921-AA; assay: two-hybrid library CCmax; conditions: mean of both orientations
T10 chain: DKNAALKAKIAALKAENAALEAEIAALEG

4H429-AA = target: T11, 4H429-AA; assay: two-hybrid library CCmax; conditions: mean of both orientations
T11 chain: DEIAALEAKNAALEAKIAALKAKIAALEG

4H454-AA = target: T12, 4H454-AA; assay: two-hybrid library CCmax; conditions: mean of both orientations
T12 chain: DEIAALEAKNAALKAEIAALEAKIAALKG

4H48-AA = target: T13, 4H48-AA; assay: two-hybrid library CCmax; conditions: mean of both orientations
T13 chain: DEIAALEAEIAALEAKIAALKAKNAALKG

4H566-AA = target: T14, 4H566-AA; assay: two-hybrid library CCmax; conditions: mean of both orientations
T14 chain: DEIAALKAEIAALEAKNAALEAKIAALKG

4H605-AA = target: T15, 4H605-AA; assay: two-hybrid library CCmax; conditions: mean of both orientations
T15 chain: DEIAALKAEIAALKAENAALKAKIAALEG

4H678-AA = target: T16, 4H678-AA; assay: two-hybrid library CCmax; conditions: mean of both orientations
T16 chain: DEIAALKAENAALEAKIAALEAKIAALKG

4H717-AA = target: T17, 4H717-AA; assay: two-hybrid library CCmax; conditions: mean of both orientations
T17 chain: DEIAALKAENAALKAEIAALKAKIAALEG

4H780-AA = target: T18, 4H780-AA; assay: two-hybrid library CCmax; conditions: mean of both orientations
T18 chain: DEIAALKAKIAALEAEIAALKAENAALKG

4H794-AA = target: T19, 4H794-AA; assay: two-hybrid library CCmax
T19 chain: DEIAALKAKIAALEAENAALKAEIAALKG

4H881-AA = target: T20, 4H881-AA; assay: two-hybrid library CCmax; conditions: mean of both orientations
T20 chain: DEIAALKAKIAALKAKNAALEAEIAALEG

4H906-AA = target: T21, 4H906-AA; assay: two-hybrid library CCmax; conditions: mean of both orientations
T21 chain: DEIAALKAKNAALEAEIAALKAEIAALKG

4H993-AA = target: T22, 4H993-AA; assay: two-hybrid library CCmax; conditions: mean of both orientations
T22 chain: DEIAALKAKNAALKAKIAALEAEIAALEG

4H483-AA = target: T23, 4H483-AA; assay: two-hybrid library CCmax
T23 chain: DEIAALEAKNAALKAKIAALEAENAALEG

4H63-AA = target: T24, 4H63-AA; assay: two-hybrid library CCmax; conditions: mean of both orientations
T24 chain: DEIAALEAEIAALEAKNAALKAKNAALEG

4H850-bN = target: T25, 4H850-bN; assay: two-hybrid library CCNG1
T25 chain: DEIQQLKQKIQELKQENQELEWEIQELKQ

4H906-bN = target: T26, 4H906-bN; assay: two-hybrid library CCNG1
T26 chain: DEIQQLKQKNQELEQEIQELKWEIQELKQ

APC9291-AA = target: T27, APC9291-AA; assay: two-hybrid library CCmax
T27 chain: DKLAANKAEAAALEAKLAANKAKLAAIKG

APC9806-AA = target: T28, APC9806-AA; assay: two-hybrid library CCmax; conditions: mean of both orientations
T28 chain: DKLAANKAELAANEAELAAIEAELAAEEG

4H3974-AA = target: T29, 4H3974-AA; assay: two-hybrid library CCmax
T29 chain: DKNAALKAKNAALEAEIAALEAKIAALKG

4H432-AA = target: T30, 4H432-AA; assay: two-hybrid library CCmax; conditions: mean of both orientations
T30 chain: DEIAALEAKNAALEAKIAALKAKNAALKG

4H446-AA = target: T31, 4H446-AA; assay: two-hybrid library CCmax; conditions: mean of both orientations
T31 chain: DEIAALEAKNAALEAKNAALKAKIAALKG

4H3920-AA = target: T32, 4H3920-AA; assay: two-hybrid library CCmax
T32 chain: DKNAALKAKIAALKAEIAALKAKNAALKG

4H3939-AA = target: T33, 4H3939-AA; assay: two-hybrid library CCmax; conditions: mean of both orientations
T33 chain: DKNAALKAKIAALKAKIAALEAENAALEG

4H428-AA = target: T34, 4H428-AA; assay: two-hybrid library CCmax; conditions: mean of both orientations
T34 chain: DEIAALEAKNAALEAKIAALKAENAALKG

4H478-AA = target: T35, 4H478-AA; assay: two-hybrid library CCmax; conditions: mean of both orientations
T35 chain: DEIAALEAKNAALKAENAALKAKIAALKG

4H497-AA = target: T36, 4H497-AA; assay: two-hybrid library CCmax; conditions: mean of both orientations
T36 chain: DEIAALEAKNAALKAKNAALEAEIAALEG

4H656-AA = target: T37, 4H656-AA; assay: two-hybrid library CCmax; conditions: mean of both orientations
T37 chain: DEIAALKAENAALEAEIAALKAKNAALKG

4H675-AA = target: T38, 4H675-AA; assay: two-hybrid library CCmax; conditions: mean of both orientations
T38 chain: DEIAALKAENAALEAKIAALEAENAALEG

4H971-AA = target: T39, 4H971-AA; assay: two-hybrid library CCmax; conditions: mean of both orientations
T39 chain: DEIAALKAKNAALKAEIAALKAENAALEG

4H2949-AA = target: T40, 4H2949-AA; assay: two-hybrid library CCmax
T40 chain: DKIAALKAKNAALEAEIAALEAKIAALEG

4H3112-AA = target: T41, 4H3112-AA; assay: two-hybrid library CCmax; conditions: mean of both orientations
T41 chain: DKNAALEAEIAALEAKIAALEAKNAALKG

B1: 4H317-AA (peptide)
chain: DEIAALEAKIAALEAKNAALKAKIAALEG
interaction score (4H317-AA): 1.28
interaction score (4H3343-AA): -1.56
interaction score (4H335-AA): -0.361
interaction score (4H342-AA): 2.15
interaction score (4H3427-AA): 1.23
interaction score (4H3606-AA): 2.23
interaction score (4H3627-AA): -0.771
interaction score (4H3655-AA): -0.949
interaction score (4H3844-AA): -0.686
interaction score (4H3921-AA): 1.81
interaction score (4H429-AA): -0.459
interaction score (4H454-AA): -1.04
interaction score (4H48-AA): 0.228
interaction score (4H566-AA): 1.74
interaction score (4H605-AA): -0.441
interaction score (4H678-AA): 0.755
interaction score (4H717-AA): -1.63
interaction score (4H780-AA): -1.52
interaction score (4H794-AA; mean of both orientations): 0.104
interaction score (4H881-AA): 1.38
interaction score (4H906-AA): 0.51
interaction score (4H993-AA): -1.11

B2: 4H483-AA (peptide)
chain: DEIAALEAKNAALKAKIAALEAENAALEG
interaction score (4H483-AA): -2.02
interaction score (4H63-AA): -1.11

B3: 4H850-bN (peptide)
chain: DEIQQLKQKIQELKQENQELEWEIQELKQ
interaction score (4H850-bN): 0.186
interaction score (4H906-bN): -0.386

B7: 4H2949-AA (peptide)
chain: DKIAALKAKNAALEAEIAALEAKIAALEG
interaction score (4H2949-AA): 1.3
interaction score (4H3112-AA): -0.654
interaction score (4H317-AA; mean of both orientations): 1.47
interaction score (4H3343-AA): -1.48
interaction score (4H335-AA): -0.276
interaction score (4H342-AA): 0.399
interaction score (4H3427-AA): -0.95
interaction score (4H3606-AA): -0.156
interaction score (4H3627-AA): -1.38
interaction score (4H3655-AA): -1.3
interaction score (4H3844-AA): -1.79
interaction score (4H3921-AA): 0.152
interaction score (4H429-AA): 1.91
interaction score (4H454-AA): 1.98
interaction score (4H48-AA): -0.564
interaction score (4H566-AA): -0.649
interaction score (4H605-AA): -0.239
interaction score (4H678-AA): 1.69
interaction score (4H717-AA): -0.385
interaction score (4H780-AA): -1.49
interaction score (4H794-AA): -1
interaction score (4H881-AA): 1.71
interaction score (4H906-AA): -1.01
interaction score (4H993-AA): 1.65

The remaining lines, values ahead:

interaction score (APC9291-AA): -1.78
interaction score (APC9806-AA): -1.78
B4: APC9291-AA (peptide)
chain: DKLAANKAEAAALEAKLAANKAKLAAIKG

interaction score (4H3974-AA): -0.00837
interaction score (4H432-AA): -0.198
interaction score (4H446-AA): -0.724
interaction score (4H63-AA): -0.932
B5: 4H3974-AA (peptide)
chain: DKNAALKAKNAALEAEIAALEAKIAALKG

interaction score (4H3920-AA): -1.57
interaction score (4H3939-AA): -0.87
interaction score (4H428-AA): -0.945
interaction score (4H478-AA): -1.71
interaction score (4H497-AA): -1.9
interaction score (4H656-AA): -1.01
interaction score (4H675-AA): -1.22
interaction score (4H971-AA): -1.64
B6: 4H3920-AA (peptide)
chain: DKNAALKAKIAALKAEIAALKAKNAALKG
